Experimental data as given in US20260152536.

Columns and labels:
IL-12p70-L2-TM = IL-12p70-L2-TM (UniProt P43432)
IL-12p70-L3-TM = IL-12p70-L3-TM (UniProt P43432)
IL-12p70-L4-TM = IL-12p70-L4-TM (UniProt P43432)
IL-12p70-L4s-TM = IL-12p70-L4s-TM (UniProt P43432)
IL-12p70-L5-TM = IL-12p70-L5-TM (UniProt P43432)
IL-12p70-L5-TM, sequence (P43432 other isoform, or with tags, fused parts or gaps): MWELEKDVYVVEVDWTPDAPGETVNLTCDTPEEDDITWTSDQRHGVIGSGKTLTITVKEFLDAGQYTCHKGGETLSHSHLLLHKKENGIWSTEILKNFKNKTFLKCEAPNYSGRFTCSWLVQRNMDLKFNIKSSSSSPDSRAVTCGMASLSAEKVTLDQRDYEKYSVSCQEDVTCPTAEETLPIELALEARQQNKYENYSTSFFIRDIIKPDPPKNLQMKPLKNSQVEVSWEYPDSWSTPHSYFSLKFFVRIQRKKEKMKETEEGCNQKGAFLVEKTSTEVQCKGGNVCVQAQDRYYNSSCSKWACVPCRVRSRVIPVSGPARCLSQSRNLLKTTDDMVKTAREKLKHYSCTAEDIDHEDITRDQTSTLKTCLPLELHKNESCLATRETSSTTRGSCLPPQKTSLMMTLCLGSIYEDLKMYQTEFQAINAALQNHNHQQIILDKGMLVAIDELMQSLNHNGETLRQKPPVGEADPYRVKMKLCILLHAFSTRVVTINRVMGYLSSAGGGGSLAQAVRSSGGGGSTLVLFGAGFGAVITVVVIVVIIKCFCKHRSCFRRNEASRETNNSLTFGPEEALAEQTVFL

activated murine MMP2 (matrix metalloprotease 2), sequence (chain, as listed by the source): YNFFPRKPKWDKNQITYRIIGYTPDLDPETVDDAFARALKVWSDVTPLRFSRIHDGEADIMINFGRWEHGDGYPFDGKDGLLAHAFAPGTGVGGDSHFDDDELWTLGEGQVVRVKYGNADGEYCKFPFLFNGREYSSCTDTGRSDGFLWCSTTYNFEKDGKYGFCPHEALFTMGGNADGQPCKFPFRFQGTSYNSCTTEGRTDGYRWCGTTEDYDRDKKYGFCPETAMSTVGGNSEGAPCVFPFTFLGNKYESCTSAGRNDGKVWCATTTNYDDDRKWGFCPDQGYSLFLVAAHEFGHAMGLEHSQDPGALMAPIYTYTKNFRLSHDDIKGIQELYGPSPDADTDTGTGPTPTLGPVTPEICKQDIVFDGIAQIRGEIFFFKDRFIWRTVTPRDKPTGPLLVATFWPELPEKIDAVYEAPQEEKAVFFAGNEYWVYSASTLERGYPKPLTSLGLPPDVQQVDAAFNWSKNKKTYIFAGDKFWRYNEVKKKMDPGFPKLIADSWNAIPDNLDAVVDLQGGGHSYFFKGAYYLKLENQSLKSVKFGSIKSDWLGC
IL-12p70-L4s-TM, sequence (P43432 other isoform, or with tags, fused parts or gaps): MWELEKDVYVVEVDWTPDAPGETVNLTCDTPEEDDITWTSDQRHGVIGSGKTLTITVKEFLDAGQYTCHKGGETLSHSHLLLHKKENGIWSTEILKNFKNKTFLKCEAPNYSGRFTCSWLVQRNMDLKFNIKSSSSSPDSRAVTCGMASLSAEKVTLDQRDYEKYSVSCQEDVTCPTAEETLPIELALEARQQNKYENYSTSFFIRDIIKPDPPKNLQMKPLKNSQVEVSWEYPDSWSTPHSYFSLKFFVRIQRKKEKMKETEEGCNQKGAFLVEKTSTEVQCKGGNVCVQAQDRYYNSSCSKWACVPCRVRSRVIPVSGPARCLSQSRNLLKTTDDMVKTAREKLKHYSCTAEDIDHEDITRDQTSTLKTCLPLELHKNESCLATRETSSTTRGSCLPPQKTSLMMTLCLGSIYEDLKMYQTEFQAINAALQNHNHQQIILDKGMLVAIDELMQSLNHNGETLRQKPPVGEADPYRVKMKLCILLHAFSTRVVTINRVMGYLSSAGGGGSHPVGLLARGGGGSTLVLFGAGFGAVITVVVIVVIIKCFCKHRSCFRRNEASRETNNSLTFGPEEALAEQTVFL
IL-12p70-L2-TM, sequence (P43432 other isoform, or with tags, fused parts or gaps): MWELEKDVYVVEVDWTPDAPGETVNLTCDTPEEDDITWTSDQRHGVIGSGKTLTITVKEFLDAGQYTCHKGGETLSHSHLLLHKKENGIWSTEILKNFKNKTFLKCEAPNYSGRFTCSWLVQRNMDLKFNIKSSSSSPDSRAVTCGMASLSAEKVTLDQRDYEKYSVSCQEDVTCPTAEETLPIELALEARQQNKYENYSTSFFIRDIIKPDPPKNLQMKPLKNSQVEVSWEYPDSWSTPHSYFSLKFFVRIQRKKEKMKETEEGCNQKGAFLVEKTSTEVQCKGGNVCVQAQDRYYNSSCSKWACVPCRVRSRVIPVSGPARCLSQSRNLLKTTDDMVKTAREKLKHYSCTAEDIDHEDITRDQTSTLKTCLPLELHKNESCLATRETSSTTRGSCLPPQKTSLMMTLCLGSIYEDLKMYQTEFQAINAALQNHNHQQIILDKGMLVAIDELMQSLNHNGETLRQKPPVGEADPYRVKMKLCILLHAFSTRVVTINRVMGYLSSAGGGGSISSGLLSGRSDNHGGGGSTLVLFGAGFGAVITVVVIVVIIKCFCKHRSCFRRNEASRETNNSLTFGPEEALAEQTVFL
IL-12p70-L4-TM, sequence (P43432 other isoform, or with tags, fused parts or gaps): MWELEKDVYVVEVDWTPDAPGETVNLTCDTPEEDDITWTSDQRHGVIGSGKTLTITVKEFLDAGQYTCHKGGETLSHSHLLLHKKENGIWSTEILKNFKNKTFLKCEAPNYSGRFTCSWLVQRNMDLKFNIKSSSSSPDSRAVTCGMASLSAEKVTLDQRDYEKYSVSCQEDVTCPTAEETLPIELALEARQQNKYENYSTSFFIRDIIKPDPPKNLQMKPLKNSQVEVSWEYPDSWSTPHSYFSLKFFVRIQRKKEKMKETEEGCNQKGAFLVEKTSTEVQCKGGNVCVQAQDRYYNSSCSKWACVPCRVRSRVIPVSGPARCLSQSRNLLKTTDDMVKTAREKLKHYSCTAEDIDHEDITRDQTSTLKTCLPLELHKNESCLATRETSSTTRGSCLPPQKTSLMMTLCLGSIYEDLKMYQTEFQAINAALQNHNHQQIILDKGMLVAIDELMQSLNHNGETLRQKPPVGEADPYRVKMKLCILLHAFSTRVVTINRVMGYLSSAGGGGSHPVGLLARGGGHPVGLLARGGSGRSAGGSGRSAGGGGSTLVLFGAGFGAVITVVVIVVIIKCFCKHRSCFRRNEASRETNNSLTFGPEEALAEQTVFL
IL-12p70-L3-TM, sequence (P43432 other isoform, or with tags, fused parts or gaps): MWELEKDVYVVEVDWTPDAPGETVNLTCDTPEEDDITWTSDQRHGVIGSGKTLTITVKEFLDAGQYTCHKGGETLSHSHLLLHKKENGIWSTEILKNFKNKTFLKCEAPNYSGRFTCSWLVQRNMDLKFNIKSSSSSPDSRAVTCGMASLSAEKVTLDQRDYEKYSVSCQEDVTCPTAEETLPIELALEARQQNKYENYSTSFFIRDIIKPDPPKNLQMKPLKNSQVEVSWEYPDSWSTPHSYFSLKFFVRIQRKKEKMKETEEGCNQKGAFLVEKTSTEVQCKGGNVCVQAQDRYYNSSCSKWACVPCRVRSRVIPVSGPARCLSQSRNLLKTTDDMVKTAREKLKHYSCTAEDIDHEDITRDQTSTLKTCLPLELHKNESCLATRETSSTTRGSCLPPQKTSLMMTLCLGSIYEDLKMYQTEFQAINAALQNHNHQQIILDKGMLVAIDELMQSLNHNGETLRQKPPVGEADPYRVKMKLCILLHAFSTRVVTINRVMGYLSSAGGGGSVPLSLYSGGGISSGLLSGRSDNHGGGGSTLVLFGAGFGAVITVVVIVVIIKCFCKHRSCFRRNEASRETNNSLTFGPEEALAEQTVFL

activated murine MMP2 (matrix metalloprotease 2)
release of cleaved (therefore soluble) IL-12p70 into the supernatant, ELISA (IL-12p70-L2-TM): a time-dependent release of IL-12p70 was observed
release of cleaved (therefore soluble) IL-12p70 into the supernatant, ELISA (IL-12p70-L3-TM): a time-dependent release of IL-12p70 was observed
release of cleaved (therefore soluble) IL-12p70 into the supernatant, ELISA (IL-12p70-L4-TM): a time-dependent release of IL-12p70 was observed
release of cleaved (therefore soluble) IL-12p70 into the supernatant, ELISA (IL-12p70-L4s-TM): a time-dependent release of IL-12p70 was observed
release of cleaved (therefore soluble) IL-12p70 into the supernatant, ELISA (IL-12p70-L5-TM): a time-dependent release of IL-12p70 was observed
